Reference: article PMC8213806
pKd: −log10 of the molar value.

How the values were obtained:
[1] = target: TcdB2 (R20292 strain), recombinant full-length, from Bacillus megaterium (Clostridioides difficile (R20292 strain as printed))
[2] = target: Repeat1-Fc (CSPG4 Repeat1, residues 410–551, fused to the N-terminus of human IgG1 Fc) (human) (UniProt Q6UVK1); experiment: BLI; Repeat1-Fc (50 nM) immobilised on Anti-hIgG-Fc biosensors, TcdB1 or TcdB2 in solution; 20 mM HEPES, 400 mM NaCl, pH 7.5, 10 mM CaCl2, 0.1% Tween-20, 0.5% BSA; 1:1 binding model
Repeat1-Fc (CSPG4 Repeat1, residues 410–551, fused to the N-terminus of human IgG1 Fc) (human), sequence (Q6UVK1 410-551): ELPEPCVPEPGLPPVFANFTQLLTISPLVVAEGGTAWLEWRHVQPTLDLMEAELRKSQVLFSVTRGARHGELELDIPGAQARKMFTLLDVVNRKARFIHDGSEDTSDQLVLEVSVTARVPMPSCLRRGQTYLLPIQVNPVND

Repeat1-Fc (CSPG4 Repeat1, residues 410–551, fused to the N-terminus of human IgG1 Fc), sequence (Q6UVK1 410-551): as above

## Repeat1-Fc (CSPG4 Repeat1, residues 410–551, fused to the N-terminus of human IgG1 Fc) (from UniProt Q6UVK1 410-551) (Fc fusion)
[1]
  neutralisation in the cell-rounding assay on HeLa cells, 24 h, Repeat1-Fc at 2 µM; cells kept from rounding: 40%

## TcdB2 (R20292 strain), recombinant full-length, from Bacillus megaterium (natural protein)
[2]
  pKd: 8.27
  koff: 4.63e-05 s⁻¹
  kon: 8340 M⁻¹ s⁻¹
